The data set deals with MS2 coat protein. The data set is described as follows: apparent KD of MS2 coat protein; higher = weaker reporter binding. The note with it: Eterna round: R107. The procedure, abridged:
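Apparent KD is reported per design as the median of normalised binding-curve fits across its clusters. The RNA switches were made by on-chip transcription from Illumina sequencing clusters. SNAP-549-labelled MS2 coat protein was then added in twofold steps (0.7 or 1.5 nM to 3 µM; 0.8–1.5 h to 10–20 min per step) in 100 mM Tris-HCl pH 7.5, 80 mM KCl, 4 mM MgCl2, without or with constant ligand.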

[1] abbreviates: input ligand: theophylline 20 uM.
[2] abbreviates: input ligand: tryptophan 2.4 mM.
The mark [3] stands for this setting: input ligand: theophylline 2 mM.

Data on 17 sequences can be found in the supplement of paper PMC9170038.

As for “UAUAUUGUGAUGGAUACCAGCAGAGAAAACGUUUAUCCUAACAUGAGGAUCACCCAUGUAUGCCCUUGGCAGCUGUUGUGAUAUA [8.N]”, the “apparent KD of MS2 coat protein” value was 47.6 nM (input ligand: arginine 13.2 mM), 73.9 nM under setting [1] and 61.1 nM under setting [2].

Regarding “AAUUGAAACAGAGGUAUAUACGGACAUUACCGAGGACCGGUACGGCCGCCACUCGACCUAAAACAUGAGGAUCACCCAUGUAGCA [theeternabot_exclusion_MS2_Trp_A_20]”, the “apparent KD of MS2 coat protein” value worked out at 12.6 nM (input ligand: arginine 13.2 mM), 14.2 nM under setting [1] and 13.8 nM under setting [3].

Take “UGAGGGACCAGAAGGAGCGACAUGAGGAUCACCCAUGUCUCCCGUUAUGGGAGUUCUUUAGGUCAGGUAGGUCGCUGGUCCCUCA [#1 Exclusion - Arginine B Attempt #7 (Inspired by Omei)]”: the “apparent KD of MS2 coat protein” value worked out at 25.6 nM (input ligand: arginine 13.2 mM), 77.9 nM (input ligand: none) and 256 nM under setting [1].

As for “AGCGAUAUGCAUGAUACCAGCUACAUGAGGAUCACCCAUGUGCGUCAGAAAUGACUGUGUAGCCCUUGGCAGCAUAGAGCAUGUA [Exclusion - Theophylline B (Freestyle 11)]”, the “apparent KD of MS2 coat protein” value reads like this: (input ligand: arginine 13.2 mM) 35.2 nM; under setting [1], 46.2 nM; under setting [2], 38.4 nM.

“AUAACAUGAGGAUCACCCAUGUAAGCAGAUACCAGCUAGGAAACUAGCCCUUGGCAGCUGCAAUCAUGGGUGUGGUAUCUGCUAA [(M1)-(M2)-(T1)-(T2)-(M)'-(T)'_Design5]”: the “apparent KD of MS2 coat protein” value came out at 21.5 nM (input ligand: arginine 13.2 mM), 39.7 nM under setting [1] and 16.4 nM under setting [2].

In the case of “CAUAUAUAUGGAAGGAGCGCGAUUACAUAACAUGAGGAUCACCCAUGUAAGAAAUUAUUCAUGCAGGUAGGUCGCCAUAUAUAUG [Same State Arginine B GF6]”, the “apparent KD of MS2 coat protein” value came to 29.3 nM (input ligand: arginine 13.2 mM); 24 nM (input ligand: none); 35.3 nM under setting [1]; 27 nM under setting [3]; 26.6 nM under setting [2].

Consider “AUUAACAUGAGGAUCACCCAUGUUCUCACACGAGGACCGGUACGGCCGCCACUCGGUUUGGUAUUGGUCACUAGGCAGUUAGGAG [theeternabot_sameState_MS2_Trp_A_12]”, for which the “apparent KD of MS2 coat protein” value by setting is: (input ligand: arginine 13.2 mM) 15.2 nM; under setting [1], 26.7 nM; under setting [3], 17 nM.

As to “UGUGCAGGAUGCGUAAAGGGUCUUGGGCAUCGAGGACCGGUACGGCCGCCACUCGGCUGUACAUGAGGAUCACCCAUGUCAGGGU [#1 Same State - Tryptophan A Attempt #20 (HarryS)]”, the “apparent KD of MS2 coat protein” value reads like this: (input ligand: arginine 13.2 mM) 90.8 nM; (input ligand: none) 226 nM; under setting [1], 1060 nM; under setting [3], 393 nM; under setting [2], 271 nM.

Turning to “UACAUGAGGAUCACCCAUGUAUGUAUCGAAGGAGCGCGUGUAAACGCAGGUAGGUCGCGAACAUGAGGAUCACACAUGAGGAUCA [Same State Arginine A]”, the “apparent KD of MS2 coat protein” value reads like this: (input ligand: arginine 13.2 mM) 20.9 nM; under setting [1], 31.1 nM; under setting [3], 37.5 nM; under setting [2], 29.3 nM.

On to “UGACAUUGCUCAGAUACCAGACAUGAGGAUCACCCAUGUGCCAAAACGUACUAAAUAAAUGUCCCUUGGCAGCUGAGCAAUGUCU [TheoBX 13 #MS2Left #Theo2]”, for which the “apparent KD of MS2 coat protein” value is 13.5 nM (input ligand: arginine 13.2 mM), 14.4 nM under setting [1] and 12.9 nM under setting [2].

Turning to “UUGCUCUCUUCGGCCGCCACUACACGCGAGUUGACGACUGGCGGACAUGAGGAUCACCCAUGUCAUAGGACCGGGAAUCACGCUG [theeternabot_sameState_MS2_Trp_B_11]”, the “apparent KD of MS2 coat protein” value by setting is: (input ligand: arginine 13.2 mM) 11.5 nM; under setting [1], 15.9 nM; under setting [3], 15.2 nM.

On to “AAUAAUAAGAAUAACGUACCAGGUGAUCAACGAGGACCGGUACGGCCGCCACUCGAAACAUGAGGAUCACCCAUGUAAUAACAAU [|T'-M'-Trp-Ms2|_Design 2_OL]”, for which the “apparent KD of MS2 coat protein” value runs as follows: (input ligand: arginine 13.2 mM) 39.7 nM; under setting [1], 107 nM; under setting [3], 124 nM.

Turning to “AACAUGAGGAUCACCCAUGUCCUCAUGAUUCGAGGACCGGUACGGCCGCCACUCGGUCCUCGCGAGGAGGAGUCAAAGACUCCAA [Omei Trp A SS A v2]”, the “apparent KD of MS2 coat protein” value was found to be 360 nM (input ligand: arginine 13.2 mM), 361 nM under setting [1] and 968 nM under setting [3].

On to “ACGCUGAUUGAUUACAAUCAGCGAAAAGAUACCAGUGGGUAAUCCCACCCUUGGCAGCUUAAAUCUGAGGAUCACCCAGGUGGUA [TheoAS 19 #MS2Right #BothOrNeither #AlternativeMS2]”, for which the “apparent KD of MS2 coat protein” value is 153 nM (input ligand: arginine 13.2 mM); 253 nM (input ligand: none); 382 nM under setting [1]; 376 nM under setting [3]; 728 nM under setting [2].

As for “AACAUGAGGAUCACCCAUGUGUCCUCGAAACGAGGACCGGUACGGCCGCCACUCGACGUAUGUUGACGAAAAGUCAGCAUACGAA [Mat - Exclusion - Trytophan A - D12]”, the “apparent KD of MS2 coat protein” value is 112 nM (input ligand: arginine 13.2 mM), 310 nM under setting [1] and 330 nM under setting [3].

Turning to “GAUUAAACAUGAGGAUCACCCAUGUAUAUACGAGGACCGGUACGGCCGCCACUCGAAAACGAGUAUCCUCGAAUAAACAUGAUAA [AK 2 SS Trypt (A)]”, the “apparent KD of MS2 coat protein” value amounted to 27.7 nM (input ligand: arginine 13.2 mM), 48.3 nM under setting [1] and 52.8 nM under setting [3].

Turning to “UAGAUAGAGGGAAGGAGCGCAGUAACAUAACAUGAGGAUCACCCAUGUAAGAAAUUAAUAAUGCAGGUAGGUCGCCCAAGAUGAU [#10 Same State - Arginine B]”, the “apparent KD of MS2 coat protein” value by setting is: (input ligand: arginine 13.2 mM) 12.4 nM; (input ligand: none) 13.6 nM; under setting [1], 17 nM; under setting [3], 15.1 nM; under setting [2], 13.9 nM.
